# In patent US20240158515A1 (Regeneron, published 2024):
# Where a chain is given by its changes, count along the chain named.
# B1: REGN6331 (antibody, human IgG1, kappa, V domains shown)
# VH: EVQLVESGGGLVQPGGSLRLSCAASGFTFTSTGISWVRQAPGKGLEWVGRIYPTSGSTNYADSVKGRFTISADTSKNTAYLQMNSLRAEDTAVYYCARTYGIYDLYVDYTEYVMDYWGQGTLVTVSS
# VL: DIQMTQSPSSLSASVGDRVTITCRASQDVDTSLAWYKQKPGKAPKLLIYSASFLYSGVPSRFSGSGSGTDFTLTISSLQPEDFATYYCQQSTGHPQTFGQGTKVEIKR
# notes: hIgG1 comparator; also called COMP6331; anti-FGFR3-hIgG1 comparator
# B2: H4H30117P2 (antibody, human IgG4 S228P, kappa, V domains shown)
# VH: QVQLVQSGAEVKKPGSSVKVSCKASGDTFSNYVIGWVRQAPGQGLEWMGGIIPIFGTTNYAQQFQGRVTITTDESTSTAYMELSSLRSEDTAVYYCARDGNYGDYFDYWGQGTLVTVSS
# VL: not shown
# How the values were obtained:
# [1] = target: T1, human FGFR3b expressed with a C-terminal murine Fc tag (hFGFR3b.mFc) (human); experiment: competition ELISA: 4 nM hFGFR3b-mFc binding to plate-coated hFGF acidic
# T1 construct: called dimeric; also called REGN3153; dimeric human FGFR3b
# T1 chain: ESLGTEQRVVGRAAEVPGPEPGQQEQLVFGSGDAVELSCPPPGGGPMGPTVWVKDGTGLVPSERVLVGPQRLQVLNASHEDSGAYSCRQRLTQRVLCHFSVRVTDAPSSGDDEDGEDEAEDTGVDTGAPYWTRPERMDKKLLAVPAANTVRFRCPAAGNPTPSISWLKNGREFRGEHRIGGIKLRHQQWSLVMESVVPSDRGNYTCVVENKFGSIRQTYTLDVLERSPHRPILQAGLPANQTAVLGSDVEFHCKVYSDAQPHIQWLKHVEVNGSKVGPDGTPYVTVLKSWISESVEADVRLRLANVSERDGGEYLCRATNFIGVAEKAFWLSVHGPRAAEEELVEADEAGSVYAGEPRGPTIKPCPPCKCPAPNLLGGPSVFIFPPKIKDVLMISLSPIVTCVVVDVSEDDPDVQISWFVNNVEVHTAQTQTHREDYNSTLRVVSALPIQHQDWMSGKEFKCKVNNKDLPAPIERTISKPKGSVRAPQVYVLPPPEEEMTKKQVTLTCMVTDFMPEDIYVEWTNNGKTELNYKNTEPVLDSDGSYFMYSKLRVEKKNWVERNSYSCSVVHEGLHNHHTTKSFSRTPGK
# Description: (§1) The fixed concentration of hFGFR3b or hFGFR3c proteins was selected to be near the concentration that generated 50% of the maximal binding (EC₅₀ value) to plate-adhered hFGF acidic or hFGF basic protein. […] The plates were then developed using TMB substrate solution (BD Biosciences) according to the manufacturer's recommended procedure and absorbance at 450 nm was measured on a Victor X5 plate reader.
# (§2) Binding data were analyzed using a sigmoidal (four-parameter logistic) dose-response model using GraphPad Prism software. […] Percent blocking of FGFR3 antibody at a given concentration was calculated based on the formula shown below.
# (§3) The ability of anti-FGFR3 antibodies to block human FGFR3b binding to hFGF acidic protein or hFGFR3c binding to hFGF acidic or hFGF basic proteins was evaluated using a sandwich ELISA-based blocking assay.
# [2] = target: T2, hFGFR3c-hFc (human, UniProt P22607 23-375); experiment: competition ELISA: 0.4 nM hFGFR3c-hFc binding to plate-coated hFGF acidic
# T2 construct: range 23-375; Bought (R&D Systems); also called dimeric human FGFR3c; R&D Systems 766-FR-050; not shown: Fc portion of human IgG1, amino acids Pro100-Lys330
# T2 sequence (looked up): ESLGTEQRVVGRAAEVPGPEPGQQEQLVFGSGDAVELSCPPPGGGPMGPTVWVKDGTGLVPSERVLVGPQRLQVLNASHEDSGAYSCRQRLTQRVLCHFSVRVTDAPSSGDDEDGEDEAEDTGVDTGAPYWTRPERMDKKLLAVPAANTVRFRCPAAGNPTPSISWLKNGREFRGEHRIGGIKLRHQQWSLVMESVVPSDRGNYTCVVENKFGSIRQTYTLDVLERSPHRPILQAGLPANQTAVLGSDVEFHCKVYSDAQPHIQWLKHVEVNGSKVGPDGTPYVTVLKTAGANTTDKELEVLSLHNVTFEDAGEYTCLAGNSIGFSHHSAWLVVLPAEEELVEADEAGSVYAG
# Description: as §1, §2, §3
# [3] = target: full length human FGFR3b on BaF3 cells (BAF3/FGFR3b, ACL11991) (human, UniProt P22607 23-808); experiment: cell-based or functional assay
# [4] = target: T3, human FGFR3c expressed with a C-terminal myc-myc-hexahistidine tag (hFGFR3c.mmH) (human, UniProt P22607 23-375); experiment: SPR Biacore, mAb captured on anti-hFc, 25C
# T3 construct: also called REGN3155; monomeric human FGFR3c
# Description: (§4) The CM5 Biacore sensor surface was derivatized by amine coupling with a monoclonal mouse anti-human Fc monoclonal antibody (REGN2567). […] Antibody-reagent association was monitored for 5 minutes while dissociation in HBS-EP running buffer was monitored for 10 minutes. At the end of each cycle, the anti-FGFR3 antibody capture surface was regenerated using a 10 sec injection of 20 mM phosphoric acid. All binding kinetics experiments were performed at 25° C.
# (§5) The specific SPR-Biacore sensorgrams were obtained by a double referencing procedure. The double referencing was performed by first subtracting the signal of each injection over a reference surface (anti-hFc) from the signal over the experimental surface (anti-hFc-captured anti-FGFR3 antibodies) thereby removing contributions from refractive index changes. In addition, running buffer injections were performed to allow subtraction of the signal changes resulting from the dissociation of captured antibodies from the coupled anti-hFc surface. Kinetic association (kₐ) and dissociation (kd) rate constants were determined by fitting the real-time sensorgrams to a 1:1 binding model using Scrubber v2.0c curve fitting software.
# [5] = target: T4, human FGFR3b expressed with a C-terminal myc-myc-hexahistidine tag (hFGFR3b.mmH) (human); experiment: SPR Biacore, mAb captured on anti-hFc, 25C
# T4 construct: also called REGN3152; monomeric human FGFR3b
# T4 chain: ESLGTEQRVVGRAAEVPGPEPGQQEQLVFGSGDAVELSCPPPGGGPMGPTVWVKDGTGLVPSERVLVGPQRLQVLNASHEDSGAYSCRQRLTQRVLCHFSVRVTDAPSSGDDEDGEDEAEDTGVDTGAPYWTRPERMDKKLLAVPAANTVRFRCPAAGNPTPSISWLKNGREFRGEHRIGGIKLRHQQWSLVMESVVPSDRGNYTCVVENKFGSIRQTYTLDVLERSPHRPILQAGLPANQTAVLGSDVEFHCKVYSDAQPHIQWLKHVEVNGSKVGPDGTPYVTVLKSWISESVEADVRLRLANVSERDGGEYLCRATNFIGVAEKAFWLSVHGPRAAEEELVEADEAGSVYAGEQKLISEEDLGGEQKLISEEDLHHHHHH
# Description: as §4, §5
# [6] = target: T2, hFGFR3c-hFc; experiment: competition ELISA: 7 nM hFGFR3c-hFc binding to plate-coated hFGF basic
# Description: as §1, §2, §3
# [7] = target: T1, human FGFR3b expressed with a …; experiment: SPR Biacore, mAb captured on anti-hFc, 25C
# Description: as §4, §5
# [8] = target: T5, murine FGFR3b expressed with a C-terminal myc-myc-hexahistidine tag (mFGFR3b.mmH) (murine); experiment: SPR Biacore, mAb captured on anti-hFc, 25C
# T5 construct: also called REGN3215; monomeric murine FGFR3b
# T5 chain: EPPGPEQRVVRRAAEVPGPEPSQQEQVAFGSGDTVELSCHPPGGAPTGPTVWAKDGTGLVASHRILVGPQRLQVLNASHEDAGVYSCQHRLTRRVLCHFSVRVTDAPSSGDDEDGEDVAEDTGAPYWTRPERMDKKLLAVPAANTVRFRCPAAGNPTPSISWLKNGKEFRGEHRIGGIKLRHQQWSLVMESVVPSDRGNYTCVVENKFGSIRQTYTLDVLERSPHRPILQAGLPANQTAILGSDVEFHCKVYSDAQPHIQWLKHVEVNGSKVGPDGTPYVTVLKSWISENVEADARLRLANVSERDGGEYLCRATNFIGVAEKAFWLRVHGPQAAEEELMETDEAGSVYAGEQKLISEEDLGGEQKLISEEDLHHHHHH
# Description: as §4, §5
# [9] = target: T6, cynomolgus FGFR3b expressed with a C-terminal myc-myc-hexahistidine tag (mfFGFR3b.mmH) (cynomolgus); experiment: SPR Biacore, mAb captured on anti-hFc, 25C
# T6 construct: also called REGN3521; mf FGFR3b ecto (R357G)(E23-G377;R357G).mmH
# T6 chain: T4 chain with A13V, P17S, G22S, T57A, R94L, R171K
# Description: as §4, §5
# [10] = target: T5, murine FGFR3b expressed with a …; experiment: SPR Biacore, mAb captured on anti-hFc, 25C; row marked NB
# Description: as §4, §5
binder,measurement,setting,value
B1,% Blocking at 200 nM mAb,[1],99%
same,IC50,[1],1.5 nM
same,IC50,[2],0.1 nM
same,"IC50 [M], BaF3 proliferation (CellTiter-Glo) with 1 nM FGF1 + 5 ug/ml heparin",[3],5.79e-11 M
same,"Max Blocking (%), BaF3 proliferation (CellTiter-Glo) with 1 nM FGF1 + 5 ug/ml heparin",[3],97.6%
same,90 nM hFGFR3c.mmH Bind (RU),[4],39.6 RU
same,Kd,[4],2.42 nM
same,t½,[4],8.77 min
same,90 nM hFGFR3b.mmH Bind (RU),[5],58.4 RU
same,Kd,[5],0.697 nM
same,t½,[5],18.8 min
same,IC50,[6],8.9 nM
B2,90 nM hFGFR3c.mmH Bind (RU),[4],166 RU
same,koff,[4],0.00732 s⁻¹
same,kon,[4],595000 M⁻¹ s⁻¹
same,t½,[4],1.6 min
same,90 nM hFGFR3b.mmH Bind (RU),[5],178 RU
same,koff,[5],0.0063 s⁻¹
same,kon,[5],656000 M⁻¹ s⁻¹
same,t½,[5],1.8 min
same,30 nM hFGFR3b.mFc Bind (RU),[7],337 RU
same,koff,[7],0.000133 s⁻¹
same,kon,[7],787000 M⁻¹ s⁻¹
same,t½,[7],87 min
same,binding result,[8],no binding (tested: 90 nM)
same,90 nM mfFGFR3b.mmH Bind (RU),[9],148 RU
same,Kd,[9],15.8 nM
same,koff,[9],0.0087 s⁻¹
same,kon,[9],550000 M⁻¹ s⁻¹
same,t½,[9],1.3 min
same,90 nM mFGFR3b.mmH Bind (RU),[10],0.9 RU
